These results are taken from article PMC9174199, “Structural basis for MTA1c-mediated DNA N6-adenine methylation” (Nature Communications, 2022).

Sequences and labels used below:
B1: Paramecium tetraurelia MTA9 (PteMTA9), untagged V219A (protein)
chain: MGKNQRESLRMRLRYNEPGSENKRINYFKLNQGYDITEDDSEYMDEQDSYKAFKKIRKYKTKSKEDKVTCDNLEVLLQWKGSINCQSYETDQKKIVVLKKILGTDLSQYAKGVQGIFIDNLFKKDLKNLDISKKLISNGILFIWSDKSLINEILETMENKGFTYIENLVVVQLSLEQALEELNKHMKIEQTEDAVLDNLDFLQQKVQVKDLILHRPSKALNQSKQVLIMFRKFDEQKSQLELRHQRTPDVLFDIVNNGKSCLKTKEYIYQTIETLLPKSQLMEIFAQKDQPRKGWISVCENK
B2: Paramecium tetraurelia MTA9 (PteMTA9), untagged L220A (protein)
chain: MGKNQRESLRMRLRYNEPGSENKRINYFKLNQGYDITEDDSEYMDEQDSYKAFKKIRKYKTKSKEDKVTCDNLEVLLQWKGSINCQSYETDQKKIVVLKKILGTDLSQYAKGVQGIFIDNLFKKDLKNLDISKKLISNGILFIWSDKSLINEILETMENKGFTYIENLVVVQLSLEQALEELNKHMKIEQTEDAVLDNLDFLQQKVQVKDLILHRPSKVANQSKQVLIMFRKFDEQKSQLELRHQRTPDVLFDIVNNGKSCLKTKEYIYQTIETLLPKSQLMEIFAQKDQPRKGWISVCENK
B3: Paramecium tetraurelia MTA9 (PteMTA9), untagged Y164A (protein)
chain: MGKNQRESLRMRLRYNEPGSENKRINYFKLNQGYDITEDDSEYMDEQDSYKAFKKIRKYKTKSKEDKVTCDNLEVLLQWKGSINCQSYETDQKKIVVLKKILGTDLSQYAKGVQGIFIDNLFKKDLKNLDISKKLISNGILFIWSDKSLINEILETMENKGFTAIENLVVVQLSLEQALEELNKHMKIEQTEDAVLDNLDFLQQKVQVKDLILHRPSKVLNQSKQVLIMFRKFDEQKSQLELRHQRTPDVLFDIVNNGKSCLKTKEYIYQTIETLLPKSQLMEIFAQKDQPRKGWISVCENK
B4: His6GST-Tthp1 L173A (protein)
chain: MSLKKGKFQHNQSKSLWNYTLSPGWREEEVKILKSALQLFGIGKWKKIMESGCLPGKSIGQIYMQTQRLLGQQSLGDFMGLQIDLEAVFNQNMKKQDVLRKNNCIINTGDNPTKEERKRRIEQNRKIYGLSAKQIAEIKLPKVKKHAPQYMTLEDIENEKFTNLEILTHLYNAKAEIVRRLAEQGETIAQPSIIKSLNNLNHNLEQNQNSNSSTETKVTLEQSGKKKYKVLAIEETELQNGPIATNSQKKSINGKRKNNRKINSDSEGNEEDISLEDIDSQESEINSEEIVEDDEEDEQIEEPSKIKKRKKNPEQESEEDDIEEDQEEDELVVNEEEIFEDDDDDEDNQDSSEDDDDDED
B5: His6GST-Tthp1 L167A (protein)
chain: MSLKKGKFQHNQSKSLWNYTLSPGWREEEVKILKSALQLFGIGKWKKIMESGCLPGKSIGQIYMQTQRLLGQQSLGDFMGLQIDLEAVFNQNMKKQDVLRKNNCIINTGDNPTKEERKRRIEQNRKIYGLSAKQIAEIKLPKVKKHAPQYMTLEDIENEKFTNLEIATHLYNLKAEIVRRLAEQGETIAQPSIIKSLNNLNHNLEQNQNSNSSTETKVTLEQSGKKKYKVLAIEETELQNGPIATNSQKKSINGKRKNNRKINSDSEGNEEDISLEDIDSQESEINSEEIVEDDEEDEQIEEPSKIKKRKKNPEQESEEDDIEEDQEEDELVVNEEEIFEDDDDDEDNQDSSEDDDDDED
B6: His6GST-Tthp1 L167A; L170A (protein)
chain: MSLKKGKFQHNQSKSLWNYTLSPGWREEEVKILKSALQLFGIGKWKKIMESGCLPGKSIGQIYMQTQRLLGQQSLGDFMGLQIDLEAVFNQNMKKQDVLRKNNCIINTGDNPTKEERKRRIEQNRKIYGLSAKQIAEIKLPKVKKHAPQYMTLEDIENEKFTNLEIATHAYNLKAEIVRRLAEQGETIAQPSIIKSLNNLNHNLEQNQNSNSSTETKVTLEQSGKKKYKVLAIEETELQNGPIATNSQKKSINGKRKNNRKINSDSEGNEEDISLEDIDSQESEINSEEIVEDDEEDEQIEEPSKIKKRKKNPEQESEEDDIEEDQEEDELVVNEEEIFEDDDDDEDNQDSSEDDDDDED
B7: His6GST-Tthp1 I177A (protein)
chain: MSLKKGKFQHNQSKSLWNYTLSPGWREEEVKILKSALQLFGIGKWKKIMESGCLPGKSIGQIYMQTQRLLGQQSLGDFMGLQIDLEAVFNQNMKKQDVLRKNNCIINTGDNPTKEERKRRIEQNRKIYGLSAKQIAEIKLPKVKKHAPQYMTLEDIENEKFTNLEILTHLYNLKAEAVRRLAEQGETIAQPSIIKSLNNLNHNLEQNQNSNSSTETKVTLEQSGKKKYKVLAIEETELQNGPIATNSQKKSINGKRKNNRKINSDSEGNEEDISLEDIDSQESEINSEEIVEDDEEDEQIEEPSKIKKRKKNPEQESEEDDIEEDQEEDELVVNEEEIFEDDDDDEDNQDSSEDDDDDED
B8: His6GST-Tthp1 L167A; L170A; L173A; I177A (protein)
chain: MSLKKGKFQHNQSKSLWNYTLSPGWREEEVKILKSALQLFGIGKWKKIMESGCLPGKSIGQIYMQTQRLLGQQSLGDFMGLQIDLEAVFNQNMKKQDVLRKNNCIINTGDNPTKEERKRRIEQNRKIYGLSAKQIAEIKLPKVKKHAPQYMTLEDIENEKFTNLEIATHAYNAKAEAVRRLAEQGETIAQPSIIKSLNNLNHNLEQNQNSNSSTETKVTLEQSGKKKYKVLAIEETELQNGPIATNSQKKSINGKRKNNRKINSDSEGNEEDISLEDIDSQESEINSEEIVEDDEEDEQIEEPSKIKKRKKNPEQESEEDDIEEDQEEDELVVNEEEIFEDDDDDEDNQDSSEDDDDDED
B9: His6GST-Tthp1 L170A (protein)
chain: MSLKKGKFQHNQSKSLWNYTLSPGWREEEVKILKSALQLFGIGKWKKIMESGCLPGKSIGQIYMQTQRLLGQQSLGDFMGLQIDLEAVFNQNMKKQDVLRKNNCIINTGDNPTKEERKRRIEQNRKIYGLSAKQIAEIKLPKVKKHAPQYMTLEDIENEKFTNLEILTHAYNLKAEIVRRLAEQGETIAQPSIIKSLNNLNHNLEQNQNSNSSTETKVTLEQSGKKKYKVLAIEETELQNGPIATNSQKKSINGKRKNNRKINSDSEGNEEDISLEDIDSQESEINSEEIVEDDEEDEQIEEPSKIKKRKKNPEQESEEDDIEEDQEEDELVVNEEEIFEDDDDDEDNQDSSEDDDDDED
B10: His6GST-Tthp1 L167A; L170A; L173A (protein)
chain: MSLKKGKFQHNQSKSLWNYTLSPGWREEEVKILKSALQLFGIGKWKKIMESGCLPGKSIGQIYMQTQRLLGQQSLGDFMGLQIDLEAVFNQNMKKQDVLRKNNCIINTGDNPTKEERKRRIEQNRKIYGLSAKQIAEIKLPKVKKHAPQYMTLEDIENEKFTNLEIATHAYNAKAEIVRRLAEQGETIAQPSIIKSLNNLNHNLEQNQNSNSSTETKVTLEQSGKKKYKVLAIEETELQNGPIATNSQKKSINGKRKNNRKINSDSEGNEEDISLEDIDSQESEINSEEIVEDDEEDEQIEEPSKIKKRKKNPEQESEEDDIEEDQEEDELVVNEEEIFEDDDDDEDNQDSSEDDDDDED
B11: His6GST-Tthp2 H39A (protein)
chain: MKKNGKSQNQPLDFTQYAKNMRKDLSNQDICLEDGALNASYFLTKKGQYWTPLNQKALQRGIELFGVGNWKEINYDEFSGKANIVELELRTCMILGINDITEYYGKKISEEEQEEIKKSNIAKGKKENKLKDNIYQKLQQMQ
B12: His6GST-Tthp2 R22A (protein)
chain: MKKNGKSQNQPLDFTQYAKNMAKDLSNQDICLEDGALNHSYFLTKKGQYWTPLNQKALQRGIELFGVGNWKEINYDEFSGKANIVELELRTCMILGINDITEYYGKKISEEEQEEIKKSNIAKGKKENKLKDNIYQKLQQMQ
B13: His6GST-Tthp2 Y17A (protein)
chain: MKKNGKSQNQPLDFTQAAKNMRKDLSNQDICLEDGALNHSYFLTKKGQYWTPLNQKALQRGIELFGVGNWKEINYDEFSGKANIVELELRTCMILGINDITEYYGKKISEEEQEEIKKSNIAKGKKENKLKDNIYQKLQQMQ
B14: His6GST-Tthp2 D24A (protein)
chain: MKKNGKSQNQPLDFTQYAKNMRKALSNQDICLEDGALNHSYFLTKKGQYWTPLNQKALQRGIELFGVGNWKEINYDEFSGKANIVELELRTCMILGINDITEYYGKKISEEEQEEIKKSNIAKGKKENKLKDNIYQKLQQMQ
B15: His6GST-Tthp2 S26A (protein)
chain: MKKNGKSQNQPLDFTQYAKNMRKDLANQDICLEDGALNHSYFLTKKGQYWTPLNQKALQRGIELFGVGNWKEINYDEFSGKANIVELELRTCMILGINDITEYYGKKISEEEQEEIKKSNIAKGKKENKLKDNIYQKLQQMQ
B16: His6GST-Tthp2 Y41A (protein)
chain: MKKNGKSQNQPLDFTQYAKNMRKDLSNQDICLEDGALNHSAFLTKKGQYWTPLNQKALQRGIELFGVGNWKEINYDEFSGKANIVELELRTCMILGINDITEYYGKKISEEEQEEIKKSNIAKGKKENKLKDNIYQKLQQMQ

In the first test the target is Paramecium tetraurelia MTA9 (PteMTA9), untagged. Briefly: GST pull-down. The following applies: parent: 100.
Consider GST-MTA1 (residues 171-372) Q296A, for which the percent of parent was 95%.
Same read-out and setting: to GST-MTA1 (residues 171-372) H297A belongs 97%; to GST-MTA1 (residues 171-372) L295A, 7%; to GST-MTA1 (residues 171-372) Y294A, 12%.

The target in a further test is T1, GST-MTA1 (residues 171-372).
T1 chain: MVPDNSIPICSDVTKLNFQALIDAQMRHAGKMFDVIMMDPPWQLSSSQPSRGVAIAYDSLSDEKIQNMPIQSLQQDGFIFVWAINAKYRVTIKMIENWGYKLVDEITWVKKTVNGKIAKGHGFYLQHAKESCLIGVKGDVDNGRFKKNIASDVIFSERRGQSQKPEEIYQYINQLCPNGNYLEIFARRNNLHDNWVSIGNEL
Kind of test: GST pull-down. The following applies: chain shown with the change;; parent: 100.
As for B1, the percent of parent was 45%.
On to B2, for which the percent of parent turned out to be 73%.
As to B3, the percent of parent was 0%.

In another test the target is T2, Tetrahymena thermophila MTA1 (TthMTA1), untagged.
T2 chain: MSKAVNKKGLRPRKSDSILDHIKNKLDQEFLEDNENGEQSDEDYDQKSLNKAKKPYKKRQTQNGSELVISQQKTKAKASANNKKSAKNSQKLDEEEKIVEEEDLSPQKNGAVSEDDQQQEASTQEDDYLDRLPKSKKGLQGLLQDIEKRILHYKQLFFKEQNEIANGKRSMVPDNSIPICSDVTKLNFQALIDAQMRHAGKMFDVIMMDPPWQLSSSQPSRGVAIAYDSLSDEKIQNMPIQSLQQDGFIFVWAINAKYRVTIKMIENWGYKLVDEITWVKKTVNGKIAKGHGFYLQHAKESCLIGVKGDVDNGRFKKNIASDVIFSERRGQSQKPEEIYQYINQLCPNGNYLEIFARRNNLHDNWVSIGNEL
Kind of test: GST pull-down. The following applies: chain shown with the change;; parent: 100.
Turning to B4, the percent of parent worked out at 78%.
Take B5: the percent of parent stood at 48%.
Still for that read-out and setting: next, B6: 0%.
Turning to B7, the percent of parent came out at 78%.
The same measure, in the same setting: next, B8: 0%; B9: 47%.
Turning to B10, the percent of parent amounted to 0%.

The target in the next test is T2, Tetrahymena thermophila MTA1 (TthMTA1), …. Kind of test: GST pull-down, gray scanning of bound MTA1 band. The conditions noted are these: chain shown with the change;; parent: 100.
In the case of B11, the percent of parent was 0%.
As to B12, the percent of parent was found to be 0%.
Same read-out and setting: next, B13: 0%; B14: 77%.
With B15, the percent of parent came to 50%.
Regarding B16, the percent of parent turned out to be 0%.
